{"source": "paper PMC4186963", "origin": "cited, not measured here", "target": "CD28 (Homo sapiens) (UniProt P10747)", "note": "pKd: −log10 of the molar value.", "data": [{"substance": "CD80 (from UniProt P33681)", "values": [{"measurement": "pKd", "result": 6.70}]}]}
